According to patent US20250026820A1 (WUHAN YZY BIOPHARMA, published 2025):

T1: TGFβ2 protein (GenScript Z03429) (human, UniProt P61812 303-414)
T1 construct: also called human TGF-β2
T1 sequence (looked up): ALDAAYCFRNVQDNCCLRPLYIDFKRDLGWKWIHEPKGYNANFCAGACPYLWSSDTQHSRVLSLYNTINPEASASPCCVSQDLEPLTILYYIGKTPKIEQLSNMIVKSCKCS

T2: TGFβ3 protein (GenScript Z03430) (human, UniProt P10600 301-412)
T2 construct: also called human TGF-β3
T2 sequence (looked up): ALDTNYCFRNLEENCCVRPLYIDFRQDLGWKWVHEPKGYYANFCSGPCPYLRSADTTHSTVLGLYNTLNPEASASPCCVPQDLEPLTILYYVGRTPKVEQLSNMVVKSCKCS


How the values were obtained:
[1] = molecular target: T3, TGFβ1 protein (GenScript Z03411) (human, UniProt P01137 279-390); experiment: ELISA; plate coated with human TGF-β1; antibody titrated; HRP anti-human Fc
T3 construct: also called human TGF-β1; TGFβ1 antigen
T3 sequence (P01137 279-390 limits assumed, one chain of several): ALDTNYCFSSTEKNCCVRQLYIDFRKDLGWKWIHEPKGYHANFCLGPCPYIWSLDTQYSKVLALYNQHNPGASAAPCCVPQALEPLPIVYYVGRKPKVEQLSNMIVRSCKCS
Description: (§1) A microplate was coated with 2 μL/well of the human TGF-β1/2/3 protein solution, respectively, at 4° C. overnight; the supernatant was discarded, 300 μL of a blocking solution (PBS containing 3% BSA) was added to each well, and the plate was blocked at 37° C. for 2 h; the antibodies were gradiently diluted, and the diluent was PBS containing 1% BSA. For example, the initial concentration of the antibody dilution was 500 nM, and diluted 10-fold to obtain 8 concentration gradients. The diluted antibody was added to the well of the microplate at 200 μL per well, the plate was left to stand and incubated at room temperature for 2 h, and the supernatant was discarded; the plate was washed for 3 times with 200 μL/well PBST (PBS containing 0.1% Tween 20); a diluted HRP-labeled anti-human Fc secondary antibody (SIGMA, A8667) was added, the secondary antibody was used after a 1:20000 dilution, the diluent was PBS containing 1% BSA, the volume was 100 μL/well, and the plate was incubated at room temperature for 1 h; the plate was washed for 5 times with 200 μL/well PBST; a TMB chromogenic solution (BD, 55214) was added at 100 μL/well for color development at 37° C. for 8 min. 2 M HCl stop solution was added at 100 μL/well. After the addition of the stop solution, the 450 nm values were read using a microplate reader within 30 min. Data were analyzed using GraphPad Prism 6.0 software and avidity fitting was performed to give EC50 values.

[2] = molecular target: T1, TGFβ2 protein (GenScript Z03429); experiment: ELISA; plate coated with human TGF-β2; antibody titrated; HRP anti-human Fc
Description: as §1

[3] = molecular target: T2, TGFβ3 protein (GenScript Z03430); experiment: ELISA; plate coated with human TGF-β3; antibody titrated; HRP anti-human Fc
Description: as §1

[4] = molecular target: T3, TGFβ1 protein (GenScript Z03411); experiment: cell-based or functional assay

EC50 [1] [nM] | EC50 [2] [nM] | EC50 [3] [nM] | EC50 of TGF-β1 inhibitory activity (TF-1 cell proliferation) [4] [nM] | Binder
1.48 | 1.62 | 1.46 | – | B3F3 anti-TGFβ single domain heavy-chain antibody (variable region, linker peptide, human IgG1 heavy chain constant region) (Fc fusion, not shown: linker peptide (GGGGS)n, n=1, 2 or 3; human IgG1 heavy chain constant region, GenBank No. AK303185.1) heavy: QVQLVESGGGLVQPGESLRLSCTASGSIFGVFYMGWFRQAPGKQRDMVAISTDDRTSYADSVKGRFTISRDNAKNTLALQMNSLKPEDTAVYFCNLNQLGTDYWGPGTQVTVSS
69.2 | 27.6 | 1.19 | – | B3D2 anti-TGFβ single domain heavy-chain antibody (variable region, linker peptide, human IgG1 heavy chain constant region) (Fc fusion, not shown: linker peptide (GGGGS)n, n=1, 2 or 3; human IgG1 heavy chain constant region, GenBank No. AK303185.1) heavy: QLQLVESGGGLVQPGGSLTLSCLASGFTFSHYPMSWVRQAPGKGLEWVSVIGSDGAIKHYSDSVKGRFAISRDNAKNTLYLQMNSLKPEDTAVYYCAEGDSRYVRNRARGQGTQVTVSS
0.747 | 0.939 | 1.22 | – | B3D6 anti-TGFβ single domain heavy-chain antibody (variable region, linker peptide, human IgG1 heavy chain constant region) (Fc fusion, not shown: linker peptide (GGGGS)n, n=1, 2 or 3; human IgG1 heavy chain constant region, GenBank No. AK303185.1) heavy: EVQLVESGGGLVQAGGSLRLSCAASGRSFSSLAVGWFRQPPGKKREIVAAVNWSGTSTYYPDSVKGRFSISRDNTKNTVYLQMNSLKPEDTAVYYCAADPDLRWLKLWGYEYWGQGTQVTVSS

Second part, the binder before the results:

Binder | EC50 [1] [nM] | EC50 [2] [nM] | EC50 [3] [nM] | EC50 of TGF-β1 inhibitory activity (TF-1 cell proliferation) [4] [nM]
B1C5 anti-TGFβ single domain heavy-chain antibody (variable region, linker peptide, human IgG1 heavy chain constant region) (Fc fusion, not shown: linker peptide (GGGGS)n, n=1, 2 or 3; human IgG1 heavy chain constant region, GenBank No. AK303185.1) heavy: EVQLVESGGGEVRPGGSLRLSCVVSGFTKDYGAIGWFRQAPGQEREGLGCIARKDGDTWSADSVKGRFTISRDNVRNTVYLQMNALKPEDRGVYYCAGDPSALYGCSDRSSEYQYWGQGTQVTVSS | 0.442 | 1.85 | 0.546 | –
B1B7 anti-TGFβ single domain heavy-chain antibody (variable region, linker peptide, human IgG1 heavy chain constant region) (Fc fusion, not shown: linker peptide (GGGGS)n, n=1, 2 or 3; human IgG1 heavy chain constant region, GenBank No. AK303185.1) heavy: QVQLVESGGGLVQPGGSLTLSCTASGSMFSFYTMGWYRQATGKQRELVAGISLGGETTYAPSVKDRFTISRDNAKNTVYLQMNSLKPEDTALYNCNAYWGEDYWGQGTQVTVSS | 7.01 | 148 | 162 | –
B1F8 anti-TGFβ single domain heavy-chain antibody (variable region, linker peptide, human IgG1 heavy chain constant region) (Fc fusion, also called BIF8; not shown: linker peptide (GGGGS)n, n=1, 2 or 3; human IgG1 heavy chain constant region, GenBank No. AK303185.1) heavy: QVQLVESGGGLVQPGGSLRLSCAASGSIFGVFYMGWFRQAPGKQREMVAISTDDRTSYVDSVKGRFTISRDNAKNTLALQMNSLKPEDTAVYFCNLNQLGTDYWGPGTQVTVSS | 0.785 | 1.42 | 1.29 | –
B2G8 anti-TGFβ single domain heavy-chain antibody (variable region, linker peptide, human IgG1 heavy chain constant region) (Fc fusion, not shown: linker peptide (GGGGS)n, n=1, 2 or 3; human IgG1 heavy chain constant region, GenBank No. AK303185.1) heavy: QVQLVESGGGLVQPGGSLRLSCAASGISFSYYDMGWFRQAPGKQRELVAIVTSGGRTNYADSVKGRFTISRETAKSTMYLQMNSLKSEDTGVYYCNAHWIVTTDYWGQGTQVTVAS | 1.72 | 1.73 | 1.47 | –
B2A2 anti-TGFβ single domain heavy-chain antibody (variable region, linker peptide, human IgG1 heavy chain constant region) (Fc fusion, not shown: linker peptide (GGGGS)n, n=1, 2 or 3; human IgG1 heavy chain constant region, GenBank No. AK303185.1) heavy: EVQVVESGGAAVQPGESLRLSCAASGSIFNTATMGWFRQAPGKQREMVAIITDGGRTNYADSVKGRFTISRDATKNTVYLQMNSLNPGDTAVYYCNALTIVPRSSIYWGQGTQVTVSS | 48 | 1.18 | 1.3 | –
B2C2 anti-TGFβ single domain heavy-chain antibody (variable region, linker peptide, human IgG1 heavy chain constant region) (Fc fusion, not shown: linker peptide (GGGGS)n, n=1, 2 or 3; human IgG1 heavy chain constant region, GenBank No. AK303185.1) heavy: QLQLVESGGGLVQPGGSLRLSCAGSGIAFSRVTMAWSRQAPGKQRELVALITDGNRSAYVDSVKGRFTISRDNTKKTMSLQMNDLKPEDTAVYYCVATDWVPTRRDYWGQGTQVTVSS | 1.25 | 1.42 | 1.43 | –
B1B8-Fc-B1B8 (Fc fusion) heavy: EVQVVESGGGLVQPGGSLTLSCVASGFAFSFTPMRWVRQAPGKGLEWVSSISIRGDTTDYADSVKGRFTISRDNAKNTLYLQMNSLKPEDTAVYYCSRGSSISTSTERTQGTQVTVSSGGGGSDKTHTCPPCPAPPVAGPSVFLFPPKPKDTLMISRTPEVTCVVVDVSHEAPEVQFNWYVDGVEVHNAKTKPREEQFNSTFRVVSVLTVVHQDWLNGKEYKCKVSNKGLPAPIEKTISKTKGQPREPQVYTLPPSRDELTKNQVSLTCLVKGFYPSDIAVEWESNGQPENNYKTTPPVLDSDGSFFLYSKLTVDKSRWQQGNVFSCSVMHEALHNHYTQKSLSLSPGGGGGSEVQVVESGGGLVQPGGSLTLSCVASGFAFSFTPMRWVRQAPGKGLEWVSSISIRGDTTDYADSVKGRFTISRDNAKNTLYLQMNSLKPEDTAVYYCSRGSSISTSTERTQGTQVTVSS | – | – | – | 0.813
B2H1 anti-TGFβ single domain heavy-chain antibody (variable region, linker peptide, human IgG1 heavy chain constant region) (Fc fusion, not shown: linker peptide (GGGGS)n, n=1, 2 or 3; human IgG1 heavy chain constant region, GenBank No. AK303185.1) heavy: QLQLVESGGGLVQPGESLRLSCAASGIIFSASTMAWFRQAPGKQRELVALITDGDRTNYADSVKGRFTISRDNAENTVYLQMTELKFEDTAVYYCNAFWLKAYWGQGTQVTVSS | 130 | 1.54 | 1.71 | –
